The source of these data is patent CN113637074A (SHANGHAI HUAIYUE BIOTECHNOLOGY CO LTD, dated 2021).

The target in assay [1] is T1, 带His标签的NKp44蛋白 (human, UniProt O95944 22-190, limits assumed).
T1 construct: also called 人NKp44; not shown: His tag
T1 sequence (looked up): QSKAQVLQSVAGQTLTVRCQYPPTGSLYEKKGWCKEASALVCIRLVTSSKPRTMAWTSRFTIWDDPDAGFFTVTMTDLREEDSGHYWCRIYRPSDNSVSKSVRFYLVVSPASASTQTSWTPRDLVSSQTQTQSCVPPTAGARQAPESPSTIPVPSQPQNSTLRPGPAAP
In words: ELISA, His-tagged protein coated at 1 μg/ml, anti-human IgG Fc-HRP.

Assay [2] has as its target T2, 带His标签的NKp30蛋白 (human, UniProt O14931 19-138, limits assumed).
T2 construct: also called 人NKp30; not shown: His tag
T2 sequence (looked up): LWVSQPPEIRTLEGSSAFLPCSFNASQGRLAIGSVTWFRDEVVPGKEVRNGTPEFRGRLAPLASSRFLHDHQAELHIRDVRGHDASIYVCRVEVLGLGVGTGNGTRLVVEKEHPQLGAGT
The assay is described as above.

B1: NKp46-1 (antibody, V domains shown)
VH: QVQLVQSGAEVKKPGSSVKVSCKASGGTFSNYGISWVRQAPGQGLEWIGRIIPYFGITNYAQKFQGRVTITADKSTSTAYMELSSLRSEDTAVYYCADNHLLRPGQNYYPWDYWGQGTTVTVSS
VL: DIQMTQSPSSLSASVGDRVTITCRASQGISNALAWYQQKPGKAPKLLIYAASRLESGVPSRFSGSGSGTDFTLTISSLQPEDFATYYCQQHYSTPPTFGQGTKVEIK
notes: Lead antibody from a human common light chain phage library; also called Ab-1; 孔A5
With B1, the binding result in assay [1] and in assay [2] was “no binding (tested: 10μg/ml)” each time.
